{"source": "IntAct's records for PubMed 31515488", "parents": {"B1": {"name": "Protein Tob1 (Homo sapiens), P50616 (parent)", "chain": "MQLEIQVALNFIISYLYNKLPRRRVNIFGEELERLLKKKYEGHWYPEKPYKGSGFRCIHIGEKVDPVIEQASKESGLDIDDVRGNLPQDLSVWIDPFEVSYQIGEKGPVKVLYVDDNNENGCELDKEIKNSFNPEAQVFMPISDPASSVSSSPSPPFGHSAAVSPTFMPRSTQPLTFTTATFAATKFGSTKMKNSGRSNKVARTSPINLGLNVNDLLKQKAISSSMHSLYGLGLGSQQQPQQQQQPAQPPPPPPPPQQQQQQKTSALSPNAKEFIFPNMQGQGSSTNGMFPGDSPLNLSPLQYSNAFDVFAAYGGLNEKSFVDGLNFSLNNMQYSNQQFQPVMAN"}, "B2": {"name": "Centrin-1 (Homo sapiens), Q12798 (parent)", "chain": "MASGFKKPSAASTGQKRKVAPKPELTEDQKQEVREAFDLFDVDGSGTIDAKELKVAMRALGFEPRKEEMKKMISEVDREGTGKISFNDFLAVMTQKMSEKDTKEEILKAFRLFDDDETGKISFKNLKRVANELGENLTDEELQEMIDEADRDGDGEVNEEEFLRIMKKTSLY", "partner": "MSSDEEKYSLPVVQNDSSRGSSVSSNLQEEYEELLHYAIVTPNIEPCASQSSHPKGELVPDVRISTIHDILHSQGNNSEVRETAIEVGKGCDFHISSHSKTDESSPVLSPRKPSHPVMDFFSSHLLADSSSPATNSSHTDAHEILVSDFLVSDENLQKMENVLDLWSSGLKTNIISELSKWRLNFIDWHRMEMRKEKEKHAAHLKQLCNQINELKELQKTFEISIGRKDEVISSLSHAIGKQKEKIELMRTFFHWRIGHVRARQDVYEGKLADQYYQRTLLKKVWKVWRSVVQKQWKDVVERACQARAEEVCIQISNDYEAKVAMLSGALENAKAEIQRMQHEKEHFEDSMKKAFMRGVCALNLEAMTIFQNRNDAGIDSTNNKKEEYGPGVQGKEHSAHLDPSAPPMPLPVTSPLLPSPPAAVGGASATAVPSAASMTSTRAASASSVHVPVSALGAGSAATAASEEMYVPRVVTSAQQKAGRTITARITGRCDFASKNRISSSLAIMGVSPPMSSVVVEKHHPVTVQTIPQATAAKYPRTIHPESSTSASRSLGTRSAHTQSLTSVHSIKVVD"}, "B3": {"name": "Serine/arginine-rich splicing factor 4 (Homo sapiens), Q08170 (parent)", "chain": "MPRVYIGRLSYQARERDVERFFKGYGKILEVDLKNGYGFVEFDDLRDADDAVYELNGKDLCGERVIVEHARGPRRDGSYGSGRSGYGYRRSGRDKYGPPTRTEYRLIVENLSSRCSWQDLKDYMRQAGEVTYADAHKGRKNEGVIEFVSYSDMKRALEKLDGTEVNGRKIRLVEDKPGSRRRRSYSRSRSHSRSRSRSRHSRKSRSRSGSSKSSHSKSRSRSRSGSRSRSKSRSRSQSRSRSKKEKSRSPSKEKSRSRSHSAGKSRSKSKDQAEEKIQNNDNVGKPKSRSPSRHKSKSKSRSRSQERRVEEEKRGSVSRGRSQEKSLRQSRSRSRSKGGSRSRSRSRSKSKDKRKGRKRSREESRSRSRSRSKSERSRKRGSKRDSKAGSSKKKKKEDTDRSQSRSPSRSVSKEREHAKSESSQREGRGESENAGTNQETRSRSRSNSKSKPNLPSESRSRSKSASKTRSRSKSRSRSASRSPSRSRSRSHSRS"}, "B4": {"name": "Notch homolog 2 N-terminal-like protein A (Homo sapiens), Q7Z3S9 (parent)", "chain": "MCVTYHNGTGYCKCPEGFLGEYCQHRDPCEKNRCQNGGTCVAQAMLGKATCRCASGFTGEDCQYSTSHPCFVSRPCLNGGTCHMLSRDTYECTCQVGFTGKECQWTDACLSHPCANGSTCTTVANQFSCKCLTGFTGQKCETDVNECDIPGHCQHGGTCLNLPGSYQCQCLQGFTGQYCDSLYVPCAPSPCVNGGTCRQTGDFTFECNCLPETVRRGTELWERDREVWNGKEHDEN", "partner": "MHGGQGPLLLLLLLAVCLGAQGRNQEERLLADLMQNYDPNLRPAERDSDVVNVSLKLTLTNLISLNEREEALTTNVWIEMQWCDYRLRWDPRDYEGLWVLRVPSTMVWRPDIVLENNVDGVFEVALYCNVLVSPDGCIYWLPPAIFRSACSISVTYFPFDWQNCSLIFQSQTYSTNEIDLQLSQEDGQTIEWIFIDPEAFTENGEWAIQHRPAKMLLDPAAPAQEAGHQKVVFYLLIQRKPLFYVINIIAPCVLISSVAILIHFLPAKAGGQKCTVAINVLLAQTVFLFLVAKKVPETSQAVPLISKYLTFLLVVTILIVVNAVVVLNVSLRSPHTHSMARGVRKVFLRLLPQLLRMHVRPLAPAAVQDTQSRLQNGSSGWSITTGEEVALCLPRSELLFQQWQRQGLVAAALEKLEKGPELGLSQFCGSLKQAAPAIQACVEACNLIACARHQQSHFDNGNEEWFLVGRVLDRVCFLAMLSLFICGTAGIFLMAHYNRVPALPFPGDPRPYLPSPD"}}}
{"variants_of": "B1", "conditions": "with cnot7_human CNOT7, Q9UIV1"}
{"variant": "Y50N", "effect of a mutation on the interaction": "with no effect"}
{"variants_of": "B2", "conditions": "with poc5_human POC5, Q8NA72"}
{"variant": "M72T", "effect of a mutation on the interaction": "with no effect"}
{"variants_of": "B3", "conditions": "with srsf6_human SRSF6, Q13247"}
{"variant": "G338A", "effect of a mutation on the interaction": "with no effect"}
{"variants_of": "B4", "conditions": "with achg_human CHRNG"}
{"variant": "R74Q", "effect of a mutation on the interaction": "with no effect"}
{"variant": "A115T", "effect of a mutation on the interaction": "with no effect"}
